Assays:
human heparanase = molecular target: T1, human heparanase (Homo sapiens, UniProt Q9Y251); assay: Cross species capture ELISA, human heparanase; type: binding
T1 sequence (Q9Y251 36-543): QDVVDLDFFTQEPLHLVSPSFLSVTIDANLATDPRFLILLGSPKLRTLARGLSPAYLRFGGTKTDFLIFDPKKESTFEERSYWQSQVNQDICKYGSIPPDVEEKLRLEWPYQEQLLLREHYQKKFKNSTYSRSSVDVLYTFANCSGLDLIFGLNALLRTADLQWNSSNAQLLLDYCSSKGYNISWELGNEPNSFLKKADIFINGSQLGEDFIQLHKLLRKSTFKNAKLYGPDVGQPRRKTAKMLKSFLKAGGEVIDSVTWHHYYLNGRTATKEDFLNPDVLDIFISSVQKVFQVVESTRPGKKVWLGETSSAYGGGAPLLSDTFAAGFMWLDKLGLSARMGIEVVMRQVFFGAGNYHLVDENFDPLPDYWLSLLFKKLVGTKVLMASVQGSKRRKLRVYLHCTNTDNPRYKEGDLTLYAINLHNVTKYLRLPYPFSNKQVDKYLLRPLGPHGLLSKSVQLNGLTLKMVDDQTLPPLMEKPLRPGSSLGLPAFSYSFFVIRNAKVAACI
Experimental: (§1) Initially, cross species binding to human, murine and cynomolgus heparanase was determined in an ELISA assay in which heparanase was captured onto plates using a rabbit anti-heparanase antibody (Raybiotech, Cat. IP-14-155). Exhaustive supernatants were added to the plates at a final dilution of 1:5 and bound antibody detected with a rabbit anti-human IgG Fc.

HCT116 xenograft = assay: Subcutaneous xenograft tumour growth, HCT116; type: in vivo, SCID mice; conditions: once weekly i.p.; 10E9.1 at 15 mg per kg
Experimental: MCF7-Hpa1#19 and HCT116 tumour cells were harvested from sub-confluent cultures. A total of 5×10^6 (MCF7-Hpa1#19) or 10^7 (HCT116) tumour cells were inoculated subcutaneously into the flank of male SCID mice. HCT116 tumour cells were implanted in PBS; […] cells were implanted in PBS containing 50% matrigel.
When tumours had attained ˜200 mm^3, tumour bearing mice were randomised into treatment groups and dosed with the following; PBS; an isotype matched control IgG2 antibody, 15 mg per kg; anti-heparanase antibody 10E9.1, 7.5 or 15 mg per kg. All treatments were administered once weekly i.p. Tumour growth was measured twice per week using calipers and tumour volumes calculated according to an ellipsoid volume is formula (3.142/6×length×width×width) from measures of the largest tumour diameter and two opposing widths (FIG. 11).

[1] = molecular target: T2, cell surface heparanase of parental MCF7 or MCF7-Hpa1#19 cells (Homo sapiens, UniProt Q9Y251); assay: Cell surface heparanase activity assay; type: cell-based; conditions: 5 or 25 μg per ml
T2 construct: an expression construct comprising a full-length human heparanase cDNA under the control of a CMV promoter; expressed in transfected cells; host or cells: MCF7-Hpa1#19 (pCR3.1 vector, CMV promoter); parental MCF7 cells run alongside carry only low endogenous heparanase
T2 sequence (Q9Y251 158-543): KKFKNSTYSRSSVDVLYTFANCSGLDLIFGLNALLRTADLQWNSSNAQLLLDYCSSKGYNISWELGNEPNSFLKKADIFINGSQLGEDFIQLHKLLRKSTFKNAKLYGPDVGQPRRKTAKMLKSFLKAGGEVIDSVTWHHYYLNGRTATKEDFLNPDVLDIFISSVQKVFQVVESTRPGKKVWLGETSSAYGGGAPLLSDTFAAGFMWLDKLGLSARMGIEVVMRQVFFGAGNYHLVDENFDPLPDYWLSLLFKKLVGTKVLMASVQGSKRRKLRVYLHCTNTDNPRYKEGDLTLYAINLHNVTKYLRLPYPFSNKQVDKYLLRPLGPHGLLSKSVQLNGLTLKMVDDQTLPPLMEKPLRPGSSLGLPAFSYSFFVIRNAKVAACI
T2 sequence (Q9Y251 36-109): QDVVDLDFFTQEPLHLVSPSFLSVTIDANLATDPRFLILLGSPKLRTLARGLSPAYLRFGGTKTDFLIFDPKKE
Experimental: Cell surface heparanase activity was measured by a modification of the methodology used in the recombinant enzyme screen (Example 4). Parental MCF7 or MCF7-Hpa1#19 cells were cultured in non-tissue culture (non-adherent) 96-well plates, seeded at 10^6 cells per well. After overnight incubation at 37° C. anti-heparanase 10E9.1 or control IgG2 (Sigma Cat. 1504-1MG) antibodies were added to the cells, to a final concentration of 0.04-25 μg per ml, and incubated for 1 hr at room temperature. Thereafter Biotin Heparan Sulfate Europium Criptate (CisBio Cat. No. 61BHSKAA) was added to the cells (final concentration 20 ng per ml) and incubated at 37° C. for 1 hr. Degradation of the heparan sulfate substrate was determined following the addition of Streptavidin-XL665 (final concentration 250 ng per ml; CisBio Cat. No. 611SAXLA) to the cells and fluorescence measured using excitation at 330 nm and emission at 670 nm. In the absence of anti-heparanase antibody or in the presence of control IgG2, the minimum fluorescence at 670 nm is the result of degradation of heparan sulfate (see FIG. 10).

murine heparanase = molecular target: T3, murine heparanase (Mus musculus, UniProt Q6YGZ1); assay: Cross species capture ELISA, murine heparanase; type: binding; conditions: min 0.06, max 0.9 OD units
T3 construct: made in house; host or cells: Hek293 cells (conditioned medium), inferred for the ELISA
T3 sequence (Q6YGZ1 28-535): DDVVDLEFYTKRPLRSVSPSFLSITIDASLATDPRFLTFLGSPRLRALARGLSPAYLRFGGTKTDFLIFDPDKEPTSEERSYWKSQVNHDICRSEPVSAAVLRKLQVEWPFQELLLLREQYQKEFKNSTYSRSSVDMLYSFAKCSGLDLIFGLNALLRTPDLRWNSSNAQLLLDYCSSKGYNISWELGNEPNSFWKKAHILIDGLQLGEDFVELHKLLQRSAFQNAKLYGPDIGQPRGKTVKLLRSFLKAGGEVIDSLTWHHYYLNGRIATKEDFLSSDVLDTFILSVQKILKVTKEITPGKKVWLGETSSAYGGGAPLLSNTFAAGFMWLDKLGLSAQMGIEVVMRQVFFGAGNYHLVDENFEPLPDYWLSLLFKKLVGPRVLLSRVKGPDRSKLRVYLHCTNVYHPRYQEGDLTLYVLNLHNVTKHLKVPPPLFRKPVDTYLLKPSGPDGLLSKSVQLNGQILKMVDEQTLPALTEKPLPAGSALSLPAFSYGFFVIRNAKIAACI
Experimental: as §1

B1: 10E9.1: fully human anti-heparanase monoclonal antibody, G2κ; VH SEQ ID NO 2, VL SEQ ID NO 4; ATCC PTA-9489 (antibody, listed as Homo Sapiens, V domains shown)
VH: QVQLVQSGAEVKKPGASVKVSCKVSGYSLTELSIHWVRQAPGKGLEWMGGFDPEDGEIIFAQKFQGRVTLTEDISLDTAYMEVSSLRSEDTAVYYCATEGHDSGDYVGYYYYGLDVWGQGTTVTVSS
VL: DIQMTQSPSSLSASVGDRVTITCRASQDIRNFLAWYQQKPGKLPKLLIYAASTLQSGVPSRFSGSGSGTDFTLTISSLQPEDVASYYCQSHNSVPFTFGPGTKVDIR
notes: fully human anti-heparanase monoclonal antibody, G2κ; ATCC PTA-9489
In the case of B1, the “Binding to heparanase Human” value (human heparanase) is reported as 0.63 OD units, the Tumour growth inhibition (HCT116 xenograft) is reported as “not inhibited” and the “Inhibition of cell surface heparanase activity” value [1] is reported as “complete inhibition of cell surface heparanase activity”. The “Binding to heparanase Mouse” value (murine heparanase) was 0.49 OD units.
